From article PMC548358
Positions count from the first letter of the chain named.

T1: Trx-mMUTYH wild type (Mus musculus, UniProt Q99P21 1-515)
T1 sequence: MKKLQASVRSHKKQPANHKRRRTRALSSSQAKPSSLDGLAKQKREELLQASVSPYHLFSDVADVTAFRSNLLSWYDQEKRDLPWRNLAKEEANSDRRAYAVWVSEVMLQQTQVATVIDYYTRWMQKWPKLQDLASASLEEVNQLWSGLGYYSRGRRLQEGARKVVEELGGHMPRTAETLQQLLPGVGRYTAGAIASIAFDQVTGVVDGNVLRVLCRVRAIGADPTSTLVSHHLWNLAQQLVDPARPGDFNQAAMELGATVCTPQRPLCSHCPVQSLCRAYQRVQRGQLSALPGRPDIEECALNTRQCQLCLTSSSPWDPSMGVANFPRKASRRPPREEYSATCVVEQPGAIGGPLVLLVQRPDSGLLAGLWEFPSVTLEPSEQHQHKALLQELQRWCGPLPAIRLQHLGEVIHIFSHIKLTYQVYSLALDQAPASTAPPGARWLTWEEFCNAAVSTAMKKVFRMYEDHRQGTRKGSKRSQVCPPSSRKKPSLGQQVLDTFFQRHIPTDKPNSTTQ

T2: Trx-mMUTYH(D207N) (Mus musculus, UniProt Q99P21 1-515, D207N)
T2 sequence: T1 sequence with D207N

B1: *A:GO (dsDNA)
DNA 1: AGCGGCCATCGATACCGTCAACCTCGAGGAATTCC
DNA 2: GGAATTCCTCGAGGTGGACGGTATCGATGGCCGCT
modifications: 8-oxoguanine at strand 2 position 16, opposite A20 of strand 1
B2: *AO:G (dsDNA)
DNA 1: B1 DNA 1
DNA 2: B1 DNA 2
modifications: 2-hydroxyadenine at strand 1 position 20, opposite G16 of strand 2
B3: *AO:T (dsDNA)
DNA 1: B1 DNA 1
DNA 2: B1 DNA 2 with G16T
modifications: 2-hydroxyadenine at strand 1 position 20, opposite T16 of strand 2
B4: *AO:GO (dsDNA)
DNA 1: B1 DNA 1
DNA 2: B1 DNA 2
modifications: 2-hydroxyadenine at strand 1 position 20; 8-oxoguanine at strand 2 position 16
B5: *A:G (dsDNA)
DNA 1: B1 DNA 1
DNA 2: B1 DNA 2

Molecular target: T1, Trx-mMUTYH wild type
Test: EMSA

Binder	binding result
B1	binds
B2	no binding
B3	no binding
B4	binds
B5	no binding

Molecular target: T2, Trx-mMUTYH(D207N)
Test: EMSA

Binder	binding result
B1	binds
B2	no binding
B3	no binding
B5	no binding
